Experimental data from patent publication US6500431B1, “Inhibitors of angiogenesis and tumor growth” (University of Southern California, priority 1998, dated 2002).
Entries after “also recorded” stand apart in the source; their conditions may differ.

What was measured:
[1] = test system: KS-SLK or KS Y-1 cells; experiment: KS-SLK or KS Y-1 tumors in nude mice; format: in vivo; conditions: daily subcutaneous 1, 10 and 20 mg/kg after one week of tumor development
Method: In order to determine the anti-angiogenic activity of the recombinant Saposin B, tumor cells were implanted in immuno-deficient mice and treated with either Saposin B or buffer alone.
Nude mice were injected with 2×10^6 KS-SLK or KS Y-1 cells subcutaneously in a total volume of 100 μL. After one week of tumor development, the mice were injected subcutaneously daily with either PBS or Saposin B at concentrations of 1, 10 and 20 mg/kg for a total protein concentration of […]. The tumor size was measured three times a week. The results represent the median of 4 mice in each group.

[2] = test system: Lewis lung carcinoma, melanoma (B16), T-cell lymphoma (EL-4), KS Y-1; experiment: Syngeneic tumors in C57BL/6 mice, KS Y-1 in nude mice; format: in vivo; conditions: 2.5 mg/kg the day following implantation; two weeks
Method: FIG. 4: Inhibition of tumor growth in mice. C57BL/6 mice were implanted with Lewis lung carcinoma, melanoma (B16), and T-cell lymphoma (EL4). KS Y-1 was implanted in nude mice as a positive control. One day after implantation 2.5 mg/kg of Saposin B was injected into the mice subcutaneously.
To determine whether this anti-tumor effect was reproducible with different classes of syngeneic tumors, C57BL/6 mice were implanted with Lewis lung carcinoma, melanoma (B16), and T-cell lymphoma (EL-4) cell lines. KS Y-1 was implanted into nude mice for a positive control. The day following tumor implantation, 2.5 mg/kg of Saposin B was administered intraperitoneally. Tumor size was measured three times a week for two weeks at which time the mice were sacrificed for analysis. […] See, FIG. 4

[3] = test system: endothelial cells (HUVEC); experiment: Growth inhibition of endothelial cells; format: cell-based
Method: FIG. 1D: Activity of n-terminus decapeptide (DVCQDCIQMV; SEQ ID NO 21).
FIG. 1E: Activity of N-terminus pentapeptide (DVCQC; SEQ ID NO: 28).
By SDS-PAGE, the bacterial product was smaller than the eukaryotic protein. Because prokaryotically expressed proteins are not glycosylated, the difference in molecular weights probably represents the presence of carbohydrate in the eukaryotic protein. Recombinant proteins were then tested in KS, endothelial and control cell lines. Activity was found only in KS cell lines and endothelial cells.

[4] = test system: CD34+ cord blood derived cells; experiment: Viability of CD34+ cord blood derived cells; format: cell-based, human
From the text: However in the presence of Saposin B, CD34^+/Flk-1^+ progenitor […] was inhibited.
Saposin B was found not to be toxic to most CD34^+ cord blood derived cells, since the difference in viability of Saposin B treated CD34^+ cells was only around 20% when compared to control cells. Thus Saposin B not only targets fully differentiated and activated endothelial cells, but also a circulating progenitor, previously shown to target angiogenic sites.

[5] = test system: CD34+/Flk-1+ cells from cord blood; experiment: Growth of CD34+/Flk-1+ progenitors on fibronectin coated dishes; format: cell-based, human; conditions: 50 ng/mL Saposin B
From the text: A bone marrow derived human CD34+/Flk-1+ progenitor cell can be mobilized into the blood stream in response to tumor induced signals such as VEGF and cytokine production. These cells can target to sites of angiogenesis where they mature into activated endothelial cells and thus contribute to the generation of new blood vessels at the tumor site. By blocking the production of these cells or by targeting these cells (i.e., the CD34+/Flk-1+ progenitors and the activated endothelial cell they can become), the angiogenesis/vasculogenesis required for tumor growth can be reduced or halted. […] The adherent cells take on a spindle-shaped morphology characteristic of the activated vascular endothelial cells typical of the angiogenic process. These cells express endothelial-specific markers including factor VIII, ulex europaeus agglutinin-1 (UEA-1), endothelial constitutive nitric oxide synthase (ecNOS), and E selectin. Further, when these cells (peripheral blood Flk+ progenitors) are infused into mice, they incorporate into newly formed blood vessels at site of injury. These observation identify CD34+/Flk-1+ bone marrow derived progenitors as a putative precursor to vascular endothelial cells. Preventing these cells from colonizing at distal sites of angiogenesis in tumors has enormous implication for the treatment of tumors. […]

[6] = test system: chicken allantoic membrane (CAM); experiment: Chicken allantoic membrane (CAM) angiogenesis assay; format: in vivo; conditions: induced by VEGF or bFGF; 48 hours
Method: In order to test anti-angiogenic activity, chicken allantoic membrane (CAM) assays were performed with recombinant Saposin B. Ten day old fertilized chicken eggs were prepared for assay by creating a window in the egg shell, and placing filter paper discs saturated with VEGF or bFGF as positive controls, test compounds, or carrier buffer (negative controls) on the allantoic membrane. The membranes were harvested after 48 hours and analyzed using an Olympus stereomicroscope. The number of branching blood vessels that infiltrated under the discs were counted and photographed. Eight CAMs were studied for test group, and the experiments were repeated at least twice.

[7] = test system: endothelial cells; experiment: Endothelial cell migration assay, fibronectin-coated transwell; format: cell-based; conditions: chemotaxis induced by VEGF or bFGF
Method: The assays were done in double chamber wells separated by […] membrane. Chemotaxis was induced by bFGF (25 ng/mL) in the lower chamber. Endothelial cells or KS cells (5×10^4/mL) were placed in the upper chamber in the presence and absence of test polypeptides. Taxol at 10 ng/mL was used as a known inhibitor of migration. Cell migration across the membrane was quantitated after an overnight incubation.
Angiogenesis is mediated by complex biochemical processes including degradation of the basement membrane under existing blood vessel endothelial cells, followed by proliferation and migration of endothelial cells, followed by formation of capillary loops, and recruitment of vascular smooth muscle cells to encase the newly formed vessels and provide stability. […]
Briefly, wells were coated with fibronectin (25 μg/mL) overnight, and endothelial cells or KS cells were plated in the upper chamber with 100 μL of DMEM/0.4% FCS. […] The plates were incubated for 5 hr at 37° C. and the cells crossing the fibronectin-coated membrane were counted after wiping the cells off the membrane in the upper chamber with a cotton swab.
The cells that traversed the membrane were fixed with Diff-Quik stain according to the manufacturer's instruction (Dade Diagnostics Inc., Aguada, PR). The cells were counted under a microscope at 320× in four randomly selected fields. […]

B1: Saposin B: polypeptide fragment of Prosaposin (positions 190 to 269), SEQ ID NO:2; recombinantly expressed (protein)
chain: GDVCQDCIQMVTDIQTAVRTNSTFVQALVEHVKEECDRLGPGMADICKNYISQYSEIAIQMMMHMQPKEICALVGFCDEVK
[1]
  tumor growth: markedly retarded
[2]
  tumor growth: profound inhibition of tumor growth
[3]; FIG. 1, 1D, 1E
  growth inhibition of endothelial cells: dose dependent growth inhibition
[3]; FIG. 1B
  growth inhibition of proliferating versus quiescent endothelial cells (HUVEC): Only proliferating and not quiescent endothelial cells (HUVEC) show dose dependent growth inhibition
[4]
  difference in viability of treated CD34+ cells compared to control cells: around 20%
[5]
  CD34+/Flk-1+ progenitor growth: inhibited
[6]
  angiogenesis (number of blood vessel branches) in CAMs: effectively blocked angiogenesis; also recorded: inhibited by Saposin B in a dose-dependent fashion
[7]
  inhibition of endothelial cell migration: compete inhibition of cell migration; also recorded: inhibited endothelial cell migration
